Assay results: IntAct's records for PubMed 15234987

These substances were tested against fog1_mouse Zfpm1 (UniProt O35615).
Sequence of fog1_mouse Zfpm1 (O35615 whole entry): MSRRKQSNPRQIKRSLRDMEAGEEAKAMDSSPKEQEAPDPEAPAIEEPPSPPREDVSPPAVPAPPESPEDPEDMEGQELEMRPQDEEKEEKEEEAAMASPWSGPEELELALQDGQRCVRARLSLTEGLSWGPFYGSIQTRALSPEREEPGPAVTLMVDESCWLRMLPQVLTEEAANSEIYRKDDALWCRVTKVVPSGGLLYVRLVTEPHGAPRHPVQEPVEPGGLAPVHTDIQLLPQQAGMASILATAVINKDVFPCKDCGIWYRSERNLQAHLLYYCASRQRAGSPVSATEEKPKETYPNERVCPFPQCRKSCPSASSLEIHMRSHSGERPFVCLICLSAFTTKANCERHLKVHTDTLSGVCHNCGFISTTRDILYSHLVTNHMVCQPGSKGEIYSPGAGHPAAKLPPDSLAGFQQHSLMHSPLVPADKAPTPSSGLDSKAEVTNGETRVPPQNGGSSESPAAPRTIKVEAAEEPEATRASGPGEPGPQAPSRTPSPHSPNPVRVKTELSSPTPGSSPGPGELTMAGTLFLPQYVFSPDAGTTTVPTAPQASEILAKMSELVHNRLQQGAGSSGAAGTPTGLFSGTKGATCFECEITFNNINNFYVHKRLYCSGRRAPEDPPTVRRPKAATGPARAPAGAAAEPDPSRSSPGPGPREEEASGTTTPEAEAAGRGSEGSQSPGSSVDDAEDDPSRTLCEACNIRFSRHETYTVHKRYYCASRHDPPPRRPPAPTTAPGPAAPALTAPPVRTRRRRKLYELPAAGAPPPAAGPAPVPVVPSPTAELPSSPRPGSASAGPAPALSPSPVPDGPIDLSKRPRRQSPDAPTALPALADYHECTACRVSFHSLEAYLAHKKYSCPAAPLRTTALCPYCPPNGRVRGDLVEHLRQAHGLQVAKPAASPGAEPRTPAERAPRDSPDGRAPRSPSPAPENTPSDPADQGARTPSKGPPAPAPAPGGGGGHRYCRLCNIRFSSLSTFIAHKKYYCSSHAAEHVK

Sequence of Transforming acidic coiled-coil-containing protein 3 (Mus musculus), Q9JJ11 R619A;I620A (Q9JJ11 whole entry R619A/I620A): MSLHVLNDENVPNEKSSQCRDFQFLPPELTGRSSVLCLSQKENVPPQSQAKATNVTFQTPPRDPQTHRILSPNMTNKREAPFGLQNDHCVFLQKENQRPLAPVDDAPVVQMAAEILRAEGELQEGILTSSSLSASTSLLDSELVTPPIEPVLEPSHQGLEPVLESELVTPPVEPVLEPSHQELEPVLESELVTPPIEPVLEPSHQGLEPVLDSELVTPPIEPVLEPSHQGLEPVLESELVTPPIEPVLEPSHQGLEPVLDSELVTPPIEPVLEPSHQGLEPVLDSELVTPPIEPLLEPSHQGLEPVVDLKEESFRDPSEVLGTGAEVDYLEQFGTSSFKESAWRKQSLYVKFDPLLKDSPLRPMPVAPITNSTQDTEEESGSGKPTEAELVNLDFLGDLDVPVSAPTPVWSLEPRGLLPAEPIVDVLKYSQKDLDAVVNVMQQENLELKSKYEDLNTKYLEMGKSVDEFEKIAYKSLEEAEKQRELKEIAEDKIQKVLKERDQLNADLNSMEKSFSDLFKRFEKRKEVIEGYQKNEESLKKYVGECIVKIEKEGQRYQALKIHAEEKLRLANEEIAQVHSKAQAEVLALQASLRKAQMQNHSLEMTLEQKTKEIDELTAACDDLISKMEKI
Sequence of Transforming acidic coiled-coil-containing protein 3 (Mus musculus), Q9JJ11 E629A;K630A (Q9JJ11 whole entry E629A/K630A): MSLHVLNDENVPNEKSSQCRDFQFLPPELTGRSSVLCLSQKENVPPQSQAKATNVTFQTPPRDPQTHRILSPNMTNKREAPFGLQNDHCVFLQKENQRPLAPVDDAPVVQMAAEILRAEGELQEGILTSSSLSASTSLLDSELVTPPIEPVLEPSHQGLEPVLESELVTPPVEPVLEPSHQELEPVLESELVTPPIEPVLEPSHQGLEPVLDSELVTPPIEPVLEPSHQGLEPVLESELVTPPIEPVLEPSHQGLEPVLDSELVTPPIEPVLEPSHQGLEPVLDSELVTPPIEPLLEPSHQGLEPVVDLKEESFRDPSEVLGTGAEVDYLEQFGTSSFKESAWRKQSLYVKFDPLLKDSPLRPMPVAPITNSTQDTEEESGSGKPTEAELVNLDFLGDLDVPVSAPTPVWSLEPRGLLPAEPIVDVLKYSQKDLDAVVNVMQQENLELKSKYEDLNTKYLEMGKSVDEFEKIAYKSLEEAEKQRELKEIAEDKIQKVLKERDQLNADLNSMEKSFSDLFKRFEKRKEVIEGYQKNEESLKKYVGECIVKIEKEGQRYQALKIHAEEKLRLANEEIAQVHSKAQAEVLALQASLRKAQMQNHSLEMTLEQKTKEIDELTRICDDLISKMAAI
Sequence of Transforming acidic coiled-coil-containing protein 3 (Mus musculus), Q9JJ11 D622A;D623A (Q9JJ11 whole entry D622A/D623A): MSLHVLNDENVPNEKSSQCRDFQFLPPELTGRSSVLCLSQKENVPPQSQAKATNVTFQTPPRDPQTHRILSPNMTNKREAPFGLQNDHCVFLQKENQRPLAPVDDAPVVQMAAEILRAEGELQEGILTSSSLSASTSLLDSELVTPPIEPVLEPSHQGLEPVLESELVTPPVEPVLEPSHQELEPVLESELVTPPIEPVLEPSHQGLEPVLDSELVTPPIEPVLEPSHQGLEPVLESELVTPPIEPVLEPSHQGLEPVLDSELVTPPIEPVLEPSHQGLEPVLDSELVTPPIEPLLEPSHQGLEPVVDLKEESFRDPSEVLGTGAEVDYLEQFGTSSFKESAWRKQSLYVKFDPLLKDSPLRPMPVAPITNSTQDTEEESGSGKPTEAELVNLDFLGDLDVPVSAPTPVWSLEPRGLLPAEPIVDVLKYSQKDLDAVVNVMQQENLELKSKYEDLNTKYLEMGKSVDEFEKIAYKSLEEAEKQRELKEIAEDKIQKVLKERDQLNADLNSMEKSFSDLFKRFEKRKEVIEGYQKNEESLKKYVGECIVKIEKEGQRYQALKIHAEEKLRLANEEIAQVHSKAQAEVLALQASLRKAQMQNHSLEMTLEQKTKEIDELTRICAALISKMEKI
Sequence of Transforming acidic coiled-coil-containing protein 3 (Mus musculus), Q9JJ11 I625A;S626A (Q9JJ11 whole entry I625A/S626A): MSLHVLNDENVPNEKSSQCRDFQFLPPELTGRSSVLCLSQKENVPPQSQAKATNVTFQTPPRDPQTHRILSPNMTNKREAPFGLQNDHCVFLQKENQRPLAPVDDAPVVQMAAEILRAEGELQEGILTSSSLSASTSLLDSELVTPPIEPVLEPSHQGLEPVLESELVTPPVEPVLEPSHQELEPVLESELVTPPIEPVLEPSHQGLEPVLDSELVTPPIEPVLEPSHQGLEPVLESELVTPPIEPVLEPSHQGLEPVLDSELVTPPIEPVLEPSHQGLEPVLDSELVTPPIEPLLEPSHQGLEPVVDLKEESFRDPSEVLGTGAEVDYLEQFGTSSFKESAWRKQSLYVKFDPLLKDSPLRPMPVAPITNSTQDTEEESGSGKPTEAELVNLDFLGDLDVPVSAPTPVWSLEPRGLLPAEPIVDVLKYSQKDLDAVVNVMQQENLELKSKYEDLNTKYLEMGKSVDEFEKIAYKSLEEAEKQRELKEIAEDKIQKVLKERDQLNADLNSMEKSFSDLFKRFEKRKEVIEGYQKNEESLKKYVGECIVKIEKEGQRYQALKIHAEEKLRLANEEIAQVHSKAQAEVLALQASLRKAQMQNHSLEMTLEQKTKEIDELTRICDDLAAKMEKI
Sequence of Transforming acidic coiled-coil-containing protein 3 (Mus musculus), Q9JJ11 D615A;E616A (Q9JJ11 whole entry D615A/E616A): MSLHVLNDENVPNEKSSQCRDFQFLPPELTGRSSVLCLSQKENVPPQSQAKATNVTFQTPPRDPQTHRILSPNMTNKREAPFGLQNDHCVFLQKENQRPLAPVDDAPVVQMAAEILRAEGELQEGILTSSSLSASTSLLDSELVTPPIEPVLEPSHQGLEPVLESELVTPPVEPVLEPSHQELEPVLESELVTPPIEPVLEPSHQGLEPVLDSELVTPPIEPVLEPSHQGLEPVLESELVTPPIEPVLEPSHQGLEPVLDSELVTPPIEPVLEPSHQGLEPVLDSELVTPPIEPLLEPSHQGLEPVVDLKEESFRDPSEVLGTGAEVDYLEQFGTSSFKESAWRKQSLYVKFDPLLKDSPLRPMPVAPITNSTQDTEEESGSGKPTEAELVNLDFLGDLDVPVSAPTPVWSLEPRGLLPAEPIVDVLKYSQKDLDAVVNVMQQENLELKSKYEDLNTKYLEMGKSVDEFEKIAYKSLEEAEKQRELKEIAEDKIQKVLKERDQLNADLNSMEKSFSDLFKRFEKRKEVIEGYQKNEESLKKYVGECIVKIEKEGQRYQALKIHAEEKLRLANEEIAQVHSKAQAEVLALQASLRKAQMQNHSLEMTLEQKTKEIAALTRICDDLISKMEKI

Effect of a mutation on the interaction, decreasing interaction:
Transforming acidic coiled-coil-containing protein 3 (Mus musculus), Q9JJ11 D615A;E616A
Transforming acidic coiled-coil-containing protein 3 (Mus musculus), Q9JJ11 D622A;D623A
Transforming acidic coiled-coil-containing protein 3 (Mus musculus), Q9JJ11 E629A;K630A
Transforming acidic coiled-coil-containing protein 3 (Mus musculus), Q9JJ11 I625A;S626A
Transforming acidic coiled-coil-containing protein 3 (Mus musculus), Q9JJ11 R619A;I620A
